# Source: IntAct's records for PubMed 11278869
# B1: Ropporin-1B (Homo sapiens), Q9BZX4 (parent)
# chain: MAQTDKPTCIPPELPKMLKEFAKAAIRAQPQDLIQWGADYFEALSRGETPPVRERSERVALCNWAELTPELLKILHSQVAGRLIIRAEELAQMWKVVNLPTDLFNSVMNVGRFTEEIEWLKFLALACSALGVTITKTLKIVCEVLSCDHNGGLPRIPFSTFQFLYTYIAEVDGEICASHVSRMLNYIEQEVIGPDGLITVNDFTQNPRVWLE
# B2: A-kinase anchor protein 3 (Homo sapiens), O75969 (parent)
# chain: MSEKVDWLQSQNGVCKVDVYSPGDNQAQDWKMDTSTDPVRVLSWLRRDLEKSTAEFQDVRFKPGESFGGETSNSGDPHKGFSVDYYNTTTKGTPERLHFEMTHKEIPCQGPRAQLGNGSSVDEVSFYANRLTNLVIAMARKEINEKIDGSENKCVYQSLYMGNEPTPTKSLSKIASELVNETVSACSRNAAPDKAPGSGDRVSGSSQSPPNLKYKSTLKIKESTKERQGPDDKPPSKKSFFYKEVFESRNGDYAREGGRFFPRERKRFRGQERPDDFTASVSEGIMTYANSVVSDMMVSIMKTLKIQVKDTTIATILLKKVLLKHAKEVVSDLIDSFLRNLHSVTGTLMTDTQFVSAVKRTVFSHGSQKATDIMDAMLRKLYNVMFAKKVPEHVRKAQDKAESYSLISMKGMGDPKNRNVNFAMKSETKLREKMYSEPKSEEETCAKTLGEHIIKEGLTLWHKTQQKECKSLGFQHAAFEAPNTQRKPASDISFEYPEDIGNLSLPPYPPEKPENFMYDSDSWAEDLIVSALLLIQYHLAQGGRRDARSFVEAAGTTNFPANEPPVAPDESCLKSAPIVGDQEQAEKKDLRSVFFNFIRNLLSETIFKRDQSPEPKVPEQPVKEDRKLCERPLASSPPRLYEDDETPGALSGLTKMAVSQIDGHMSGQMVEHLMNSVMKLCVIIAKSCDASLAELGDDKSGDASRLTSAFPDSLYECLPAKGTGSAEAVLQNAYQAIHNEMRGTSGQPPEGCAAPTVIVSNHNLTDTVQNKQLQAVLQWVAASELNVPILYFAGDDEGIQEKLLQLSAAAVDKGCSVGEVLQSVLRYEKERQLNEAVGNVTPLQLLDWLMVNL
# Variants of: B1
# Settings: with akap3_human AKAP3, O75969
row,effect of a mutation on the interaction,Variant
1,decreasing interaction,L18A

# Variants of: B2
# Settings: with rop1b_human ROPN1B, Q9BZX4
row,effect of a mutation on the interaction,Variant
1,decreasing interaction,L131P

# Variants of: B2
# Settings: with kap2_human PRKAR2A
row,effect of a mutation on the interaction,Variant
1,decreasing interaction,L131P
